Experimental data reported in patent US11278600B2, “Human alpha-galactosidase variants” (Codexis, Inc., priority 2014, dated 2022).
Residue numbers refer to the chain shown, from its start.

B1: 669 (protein)
chain: LDNGLARTPTMGWLHWERFMCNLDCQEEPDSCISEKLFMEMAERMVTEGWKDAGYEYLCIDDCWMAPQRDSEGRLQADPQRFPHGIRQLANHVHSKGLKLGIYADVGNKTCAGFPGSFGYYDIDAQTFADWGVDLLKFDGCYCDSLENLADGYKHMSLALNRTGRPIVYSCEWPLYMWPFQKPNYTEIRQYCNHWRNFADIDDSWASIKSILDWTSRNQERIVDVAGPGGWNDPDMLVIGNFGLSWDQQVTQMALWAIMAASLFMSNDLRAISPQAKALLQDKDVIAINQDPLGKQGYQLRKGDNFEVWERPLSGDAWAVAIINRQEIGGPRSYTIPVASLGKGVACNPACFITQLLPVKRQLGFYNWTSRLKSHINPTGTVLLQLENTMQTSLKDLL
modifications: Synthetic Polypeptide sequence of Variant No. 669 of mature Human GLA
B2: 675 (protein)
chain: B1 chain with M65V, S262P
modifications: Synthetic Polypeptide sequence of Variant No. 675 of mature Human GLA
B3: 677 (protein)
chain: B1 chain with M253W, S262P, S273D, P274S, K277R
modifications: Synthetic Polypeptide sequence of Variant No. 677 of mature Human GLA
B4: 672 (protein)
chain: B1 chain with D144Y, S262P
modifications: Synthetic Polypeptide sequence of Variant No. 672 of mature Human GLA
B5: 671 (protein)
chain: B1 chain with T10P, S262P, W368A
modifications: Synthetic Polypeptide sequence of Variant No. 671 of mature Human GLA
B6: 676 (protein)
chain: B1 chain with M39E, S262P, W368A
modifications: Synthetic Polypeptide sequence of Variant No. 676 of mature Human GLA
B7: 682 (protein)
chain: B1 chain with S262P, D316Y
modifications: Synthetic Polypeptide sequence of Variant No. 682 of mature Human GLA
B8: 674 (protein)
chain: B1 chain with P234H, S262P
modifications: Synthetic Polypeptide sequence of Variant No. 674 of mature Human GLA
B9: 680 (protein)
chain: B1 chain with T10P, M39E, S262P
modifications: Synthetic Polypeptide sequence of Variant No. 680 of mature Human GLA
B10: 678 (protein)
chain: B1 chain with M253W, A257G, S262P, K277R, Q281L, A319D
modifications: Synthetic Polypeptide sequence of Variant No. 678 of mature Human GLA
B11: 683 (protein)
chain: B1 chain with M39E, E43D, W246P, M253W, S262P, S273D, W368A
modifications: Synthetic Polypeptide sequence of Variant No. 683 of mature Human GLA
B12: 640 (protein)
chain: B1 chain with T10P, M39E, E43D, S262P
modifications: Synthetic Polypeptide sequence of Variant No. 640 of mature Human GLA
B13: 670 (protein)
chain: B1 chain with S262P, N305L
modifications: Synthetic Polypeptide sequence of Variant No. 670 of mature Human GLA
B14: 673 (protein)
chain: B1 chain with S262P, N377Y
modifications: Synthetic Polypeptide sequence of Variant No. 673 of mature Human GLA
B15: 679 (protein)
chain: B1 chain with T10P, M39E, S262P, N305L
modifications: Synthetic Polypeptide sequence of Variant No. 679 of mature Human GLA
B16: 681 (protein)
chain: B1 chain with R7P, S262P
modifications: Synthetic Polypeptide sequence of Variant No. 681 of mature Human GLA

Assays:
Type in all cases: biochemical
[1] = HTP-analysis of supernatants pretreated with base (MUGal hydrolysis); details: activity of the variant/activity of Rd7BB (SEQ ID NO: 44); challenge at pH 7.5
How it was run: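 Fluorescence of released 4-MU (Ex 355 nm, Em 448 nm) after carbonate quench reports MUGal hydrolysis by GLA variants secreted from INVSc1 yeast. Before the acidic (pH 4.3-4.8) 30-180 min reaction at 37° C, supernatants had been pre-incubated at pH 7.0-9.7 for 1-18 h at 37° C.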

[2] = HTP-analysis of supernatants pretreated with acid (MUGal hydrolysis); details: activity of the variant/activity of Rd7BB (SEQ ID NO: 44); challenge at pH 3.5
How it was run: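 Yeast INVSc1 supernatant, GLA variants; acid challenge: McIlvaine pH 3.3-4.3, 37° C., 1-3 h. Assay: MUGal in McIlvaine pH 4.8 plus citrate pH 4.3, 37° C., 30-180 min, Na2CO3 stop, Ex 355/Em 448 nm.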

[3] = HTP-analysis of yeast culture supernatants, no challenge (MUGal hydrolysis); details: activity of the variant/activity of Rd7BB (SEQ ID NO: 44)
How it was run: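 Activity read as 4-methylumbelliferyl α-D-galactopyranoside hydrolysis: fluorescence (355/448 nm) after sodium carbonate stop, following 30-180 min at 37° C with 2 mM MUGal stock at pH 4.6–4.8. Enzyme source is unchallenged culture supernatant of INVSc1 yeast expressing GLA variants, grown 66-84 h at 30° C.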

Molecule	Relative Activity of GLA Variants After Challenge at pH 7.5 [1]	Relative Activity of GLA Variants After Challenge at pH 3.5 [2]	Relative Activity of GLA Variants After No Challenge (NC) [3]
B1	− (<0.5 relative activity to Rd7BB (SEQ ID NO: 44))	− (<0.5 relative activity to Rd7BB (SEQ ID NO: 44))	+ (>0.5 to 1.5 relative activity over Rd7BB (SEQ ID NO: 44))
B2	− (<0.5 relative activity to Rd7BB (SEQ ID NO: 44))	+ (>0.5 to 1.5 relative activity over Rd7BB (SEQ ID NO: 44))	+ (>0.5 to 1.5 relative activity over Rd7BB (SEQ ID NO: 44))
B3	− (<0.5 relative activity to Rd7BB (SEQ ID NO: 44))	+ (>0.5 to 1.5 relative activity over Rd7BB (SEQ ID NO: 44))	+ (>0.5 to 1.5 relative activity over Rd7BB (SEQ ID NO: 44))
B4	− (<0.5 relative activity to Rd7BB (SEQ ID NO: 44))	+ (>0.5 to 1.5 relative activity over Rd7BB (SEQ ID NO: 44))	+ (>0.5 to 1.5 relative activity over Rd7BB (SEQ ID NO: 44))
B5	+ (>0.5 to 1.5 relative activity over Rd7BB (SEQ ID NO: 44))	++ (>1.5 relative activity over Rd7BB (SEQ ID NO: 44))	++ (>1.5 relative activity over Rd7BB (SEQ ID NO: 44))
B6	+ (>0.5 to 1.5 relative activity over Rd7BB (SEQ ID NO: 44))	+ (>0.5 to 1.5 relative activity over Rd7BB (SEQ ID NO: 44))	+ (>0.5 to 1.5 relative activity over Rd7BB (SEQ ID NO: 44))
B7	+ (>0.5 to 1.5 relative activity over Rd7BB (SEQ ID NO: 44))	+ (>0.5 to 1.5 relative activity over Rd7BB (SEQ ID NO: 44))	+ (>0.5 to 1.5 relative activity over Rd7BB (SEQ ID NO: 44))
B8	− (<0.5 relative activity to Rd7BB (SEQ ID NO: 44))	− (<0.5 relative activity to Rd7BB (SEQ ID NO: 44))	− (<0.5 relative activity to Rd7BB (SEQ ID NO: 44))
B9	+ (>0.5 to 1.5 relative activity over Rd7BB (SEQ ID NO: 44))	+ (>0.5 to 1.5 relative activity over Rd7BB (SEQ ID NO: 44))	+ (>0.5 to 1.5 relative activity over Rd7BB (SEQ ID NO: 44))
B10	− (<0.5 relative activity to Rd7BB (SEQ ID NO: 44))	− (<0.5 relative activity to Rd7BB (SEQ ID NO: 44))	− (<0.5 relative activity to Rd7BB (SEQ ID NO: 44))
B11	− (<0.5 relative activity to Rd7BB (SEQ ID NO: 44))	+ (>0.5 to 1.5 relative activity over Rd7BB (SEQ ID NO: 44))	+ (>0.5 to 1.5 relative activity over Rd7BB (SEQ ID NO: 44))
B12	+ (>0.5 to 1.5 relative activity over Rd7BB (SEQ ID NO: 44))	+ (>0.5 to 1.5 relative activity over Rd7BB (SEQ ID NO: 44))	+ (>0.5 to 1.5 relative activity over Rd7BB (SEQ ID NO: 44))
B13	+ (>0.5 to 1.5 relative activity over Rd7BB (SEQ ID NO: 44))	+ (>0.5 to 1.5 relative activity over Rd7BB (SEQ ID NO: 44))	+ (>0.5 to 1.5 relative activity over Rd7BB (SEQ ID NO: 44))
B14	− (<0.5 relative activity to Rd7BB (SEQ ID NO: 44))	+ (>0.5 to 1.5 relative activity over Rd7BB (SEQ ID NO: 44))	+ (>0.5 to 1.5 relative activity over Rd7BB (SEQ ID NO: 44))
B15	+ (>0.5 to 1.5 relative activity over Rd7BB (SEQ ID NO: 44))	+ (>0.5 to 1.5 relative activity over Rd7BB (SEQ ID NO: 44))	+ (>0.5 to 1.5 relative activity over Rd7BB (SEQ ID NO: 44))
B16	− (<0.5 relative activity to Rd7BB (SEQ ID NO: 44))	− (<0.5 relative activity to Rd7BB (SEQ ID NO: 44))	− (<0.5 relative activity to Rd7BB (SEQ ID NO: 44))
